Experimental data published in publication PMC9482650, “Quantitative fragmentomics allow affinity mapping of interactomes” (Nature Communications, 2022).

T1: APBA1_1, Q02410
T1 sequence (Q02410 651-752, limits assumed, looked up): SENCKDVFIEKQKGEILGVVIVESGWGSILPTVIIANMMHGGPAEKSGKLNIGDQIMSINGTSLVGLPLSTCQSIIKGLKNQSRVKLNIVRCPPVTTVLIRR

T2: APBA1_2, Q02410
T2 sequence (Q02410 742-832, limits assumed, looked up): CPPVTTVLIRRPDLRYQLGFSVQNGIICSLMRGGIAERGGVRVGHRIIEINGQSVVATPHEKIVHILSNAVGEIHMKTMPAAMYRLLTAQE

T3: APBA2_1, Q99767
T3 sequence (Q99767 563-664, limits assumed, looked up): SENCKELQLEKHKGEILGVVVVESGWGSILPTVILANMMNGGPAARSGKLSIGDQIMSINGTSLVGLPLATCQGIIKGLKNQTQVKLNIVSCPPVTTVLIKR

T4: APBA2_2, Q99767
T4 sequence (Q99767 654-744, limits assumed, looked up): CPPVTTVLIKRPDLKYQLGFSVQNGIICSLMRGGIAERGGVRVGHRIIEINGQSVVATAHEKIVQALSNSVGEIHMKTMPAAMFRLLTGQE

T5: DVL3, Q92997
T5 sequence (Q92997 244-331, limits assumed, looked up): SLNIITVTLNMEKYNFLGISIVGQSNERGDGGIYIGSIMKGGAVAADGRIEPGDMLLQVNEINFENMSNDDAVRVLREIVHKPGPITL

T6: GRIP1_4, Q9Y3R0
T6 sequence (Q9Y3R0 467-571, limits assumed, looked up): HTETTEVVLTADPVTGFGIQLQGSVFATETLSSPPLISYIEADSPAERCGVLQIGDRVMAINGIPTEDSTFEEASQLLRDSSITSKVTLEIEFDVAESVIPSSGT

T7: HTRA3, P83110
T7 sequence (P83110 354-453, limits assumed, looked up): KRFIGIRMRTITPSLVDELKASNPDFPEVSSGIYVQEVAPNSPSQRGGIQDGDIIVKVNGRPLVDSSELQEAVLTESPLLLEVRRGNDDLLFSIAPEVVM

T8: LIN7C, Q9NUP9
T8 sequence (Q9NUP9 88-185, limits assumed, looked up): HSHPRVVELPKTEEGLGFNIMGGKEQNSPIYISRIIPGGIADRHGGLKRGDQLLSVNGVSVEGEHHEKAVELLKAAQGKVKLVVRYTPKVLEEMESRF

T9: LNX2_2, Q8N448
T9 sequence (Q8N448 334-432, limits assumed, looked up): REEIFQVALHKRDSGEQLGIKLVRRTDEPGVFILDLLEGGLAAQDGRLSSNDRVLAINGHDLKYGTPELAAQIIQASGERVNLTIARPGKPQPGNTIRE

T10: LNX2_3, Q8N448
T10 sequence (Q8N448 463-564, limits assumed, looked up): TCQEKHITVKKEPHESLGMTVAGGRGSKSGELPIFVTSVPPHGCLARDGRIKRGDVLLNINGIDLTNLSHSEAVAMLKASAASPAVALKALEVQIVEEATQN

T11: MPDZ_10, O75970
T11 sequence (O75970 1624-1722, limits assumed, looked up): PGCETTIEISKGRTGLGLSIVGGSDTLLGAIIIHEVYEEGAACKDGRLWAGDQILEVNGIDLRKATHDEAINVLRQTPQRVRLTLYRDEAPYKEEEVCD

T12: NHERF3_3, Q5T2W1
T12 sequence (Q5T2W1 238-333, limits assumed, looked up): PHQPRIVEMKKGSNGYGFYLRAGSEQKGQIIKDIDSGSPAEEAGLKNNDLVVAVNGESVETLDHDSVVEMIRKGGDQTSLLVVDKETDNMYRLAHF

T13: SNTA1, Q13424
T13 sequence (Q13424 82-180, limits assumed, looked up): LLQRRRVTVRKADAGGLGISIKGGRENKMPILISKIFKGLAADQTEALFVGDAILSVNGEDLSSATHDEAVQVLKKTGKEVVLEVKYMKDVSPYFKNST


Columns and labels:
Test in all cases: holdup assay
Design in all cases: key: below the threshold = too weak to quantify, mostly under pKd 3.1 to 4
Conditions in all cases: plain residues with an end cap or a label only (N-terminal biotin on a linker: ado-ado)
[1] = biological target: T1, APBA1_1, Q02410
[2] = biological target: T2, APBA1_2, Q02410
[3] = biological target: T3, APBA2_1, Q99767
[4] = biological target: T4, APBA2_2, Q99767
[5] = biological target: DLG4_1, P78352
[6] = biological target: T5, DVL3, Q92997
[7] = biological target: FRMPD2_3, Q68DX3
[8] = biological target: GRID2IP_1, A4D2P6
[9] = biological target: T6, GRIP1_4, Q9Y3R0
[10] = biological target: GRIP2_4, Q9C0E4
[11] = biological target: T7, HTRA3, P83110
[12] = biological target: Inadl_4, Q8NI35
[13] = biological target: T8, LIN7C, Q9NUP9
[14] = biological target: LNX1_2, Q8TBB1
[15] = biological target: LNX1_3, Q8TBB1
[16] = biological target: T9, LNX2_2, Q8N448
[17] = biological target: T10, LNX2_3, Q8N448
[18] = biological target: MAGI2_2, Q86UL8
[19] = biological target: T11, MPDZ_10, O75970
[20] = biological target: T12, NHERF3_3, Q5T2W1
[21] = biological target: NHERF4_2, Q86UT5
[22] = biological target: NHERF4_4, Q86UT5
[23] = biological target: PDLIM1, O00151
[24] = biological target: SCRIB_1, Q14160
[25] = biological target: T13, SNTA1, Q13424

Sequence of PDLIM1, O00151 (O00151 1-87): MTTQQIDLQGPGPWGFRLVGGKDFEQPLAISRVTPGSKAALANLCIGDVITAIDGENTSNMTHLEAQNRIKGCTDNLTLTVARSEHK
Sequence of DLG4_1, P78352 (P78352 62-152): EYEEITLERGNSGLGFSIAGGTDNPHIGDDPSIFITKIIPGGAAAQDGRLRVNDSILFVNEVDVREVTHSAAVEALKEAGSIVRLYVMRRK
Sequence of SCRIB_1, Q14160 (Q14160 718-814): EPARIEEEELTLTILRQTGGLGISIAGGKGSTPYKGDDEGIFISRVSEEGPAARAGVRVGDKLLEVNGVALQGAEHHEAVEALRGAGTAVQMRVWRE
Sequence of LNX1_2, Q8TBB1 (Q8TBB1 371-470): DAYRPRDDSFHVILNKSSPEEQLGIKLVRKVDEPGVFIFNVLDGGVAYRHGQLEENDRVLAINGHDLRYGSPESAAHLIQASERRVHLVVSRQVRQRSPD
Sequence of GRID2IP_1, A4D2P6 (A4D2P6 1-87): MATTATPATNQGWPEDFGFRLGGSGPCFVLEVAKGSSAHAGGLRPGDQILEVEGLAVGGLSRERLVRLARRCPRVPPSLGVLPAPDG
Sequence of FRMPD2_3, Q68DX3 (Q68DX3 1073-1166): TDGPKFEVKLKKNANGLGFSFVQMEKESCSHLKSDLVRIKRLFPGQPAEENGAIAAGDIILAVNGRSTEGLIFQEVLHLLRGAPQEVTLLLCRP
Sequence of MAGI2_2, Q86UL8 (Q86UL8 410-522): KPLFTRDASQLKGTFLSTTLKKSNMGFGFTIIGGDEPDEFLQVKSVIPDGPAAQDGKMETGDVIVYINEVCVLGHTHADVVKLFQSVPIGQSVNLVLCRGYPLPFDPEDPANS
Sequence of NHERF4_2, Q86UT5 (Q86UT5 220-308): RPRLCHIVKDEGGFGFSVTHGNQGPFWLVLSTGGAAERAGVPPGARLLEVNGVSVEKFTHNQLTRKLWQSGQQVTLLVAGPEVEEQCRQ
Sequence of GRIP2_4, Q9C0E4 (Q9C0E4 446-548): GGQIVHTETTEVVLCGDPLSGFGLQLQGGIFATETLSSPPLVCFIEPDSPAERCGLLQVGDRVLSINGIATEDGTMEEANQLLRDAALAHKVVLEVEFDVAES
Sequence of Inadl_4, Q8NI35 (Q8NI35 547-651): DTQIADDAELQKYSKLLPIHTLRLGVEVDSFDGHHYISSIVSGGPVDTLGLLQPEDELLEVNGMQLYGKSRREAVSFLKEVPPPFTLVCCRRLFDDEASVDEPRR
Sequence of LNX1_3, Q8TBB1 (Q8TBB1 500-596): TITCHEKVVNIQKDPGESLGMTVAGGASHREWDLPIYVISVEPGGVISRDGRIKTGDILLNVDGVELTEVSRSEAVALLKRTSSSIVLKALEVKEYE
Sequence of NHERF4_4, Q86UT5 (Q86UT5 464-550): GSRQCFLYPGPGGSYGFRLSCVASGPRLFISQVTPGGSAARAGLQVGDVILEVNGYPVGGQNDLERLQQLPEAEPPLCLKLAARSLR

Binder	pKd [1]	pKd [2]	pKd [3]	pKd [4]	pKd [5]	pKd [6]	pKd [7]	pKd [8]	pKd [9]	pKd [10]	pKd [11]	pKd [12]	pKd [13]	pKd [14]	pKd [15]	pKd [16]	pKd [17]	pKd [18]	pKd [19]	pKd [20]	further results
SRPRPDDLEI [GJA1, P17302]	below the threshold	below the threshold	below the threshold	below the threshold	below the threshold	below the threshold	below the threshold	below the threshold	below the threshold	below the threshold	below the threshold	below the threshold	below the threshold	below the threshold	below the threshold	below the threshold	below the threshold	below the threshold	below the threshold	below the threshold	pKd [21]: below the threshold; pKd [22]: below the threshold; pKd [23]: below the threshold; pKd [24]: below the threshold; pKd [25]: below the threshold
ETSLVKGIDI [DENND5A, Q6IQ26]	below the threshold	3.47	below the threshold	below the threshold	below the threshold	below the threshold	3.57	below the threshold	below the threshold	below the threshold	3.91	below the threshold	below the threshold	below the threshold	below the threshold	4.13	below the threshold	3.48	below the threshold	below the threshold	pKd [21]: below the threshold; pKd [22]: 3.87; pKd [23]: below the threshold; pKd [24]: below the threshold; pKd [25]: below the threshold
NVYGTESVKI [GRIA3, P42263]	below the threshold	below the threshold	below the threshold	below the threshold	below the threshold	below the threshold	below the threshold	below the threshold	below the threshold	below the threshold	below the threshold	below the threshold	below the threshold	below the threshold	below the threshold	3.74	below the threshold	below the threshold	below the threshold	below the threshold	pKd [21]: below the threshold; pKd [22]: 3.95; pKd [23]: below the threshold; pKd [24]: below the threshold; pKd [25]: below the threshold

Further lines, with some results ahead:

pKd [1]	pKd [2]	pKd [3]	pKd [4]	pKd [5]	pKd [6]	pKd [7]	pKd [8]	pKd [9]	pKd [10]	pKd [11]	pKd [12]	pKd [13]	pKd [14]	pKd [15]	pKd [16]	pKd [17]	pKd [18]	pKd [19]	pKd [20]	Binder	further results
below the threshold	4.71	below the threshold	below the threshold	4.76	3.96	below the threshold	below the threshold	below the threshold	below the threshold	4.51	below the threshold	below the threshold	4.06	below the threshold	5.43	below the threshold	5.31	4.29	3.53	NASRTRITFV [MCM7, P33993]	pKd [21]: below the threshold; pKd [22]: below the threshold; pKd [23]: below the threshold; pKd [24]: 4.26; pKd [25]: 4.97
below the threshold	below the threshold	below the threshold	below the threshold	below the threshold	below the threshold	below the threshold	below the threshold	below the threshold	below the threshold	below the threshold	below the threshold	below the threshold	below the threshold	below the threshold	below the threshold	below the threshold	below the threshold	below the threshold	3.81	ANGLMQTSKL [SSTR5, P35346]	pKd [21]: below the threshold; pKd [22]: below the threshold; pKd [23]: below the threshold; pKd [24]: 4.06; pKd [25]: below the threshold
